Experiment [1] deals with T1, human LAG-3 overexpressed on HEK293 cells (human, UniProt P18627 23-525).
T1 construct: whole, on cells; also called 293-hLAG-3 cells; hLAG-3 on the cell surface
T1 sequence (looked up): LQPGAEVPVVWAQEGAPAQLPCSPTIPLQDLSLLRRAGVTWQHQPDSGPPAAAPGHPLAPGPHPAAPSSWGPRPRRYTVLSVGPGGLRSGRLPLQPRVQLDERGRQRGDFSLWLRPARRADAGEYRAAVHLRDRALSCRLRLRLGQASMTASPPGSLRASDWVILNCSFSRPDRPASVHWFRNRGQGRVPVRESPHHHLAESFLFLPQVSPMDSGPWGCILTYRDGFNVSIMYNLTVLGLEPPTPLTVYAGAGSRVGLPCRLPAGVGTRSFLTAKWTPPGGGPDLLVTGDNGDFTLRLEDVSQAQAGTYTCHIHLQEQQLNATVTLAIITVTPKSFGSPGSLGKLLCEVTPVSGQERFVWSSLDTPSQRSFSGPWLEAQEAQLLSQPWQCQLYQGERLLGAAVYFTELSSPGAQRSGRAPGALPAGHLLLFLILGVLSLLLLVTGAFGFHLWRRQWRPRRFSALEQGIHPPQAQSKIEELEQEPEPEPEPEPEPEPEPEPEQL
As to the kind of experiment: flow cytometry on 293-hLAG-3 cells, MFI curve. As to the method:
The binding of the 4 exemplary antibodies of the invention described above to human LAG-3 was measured in a flow cytometry-based assay. 293 cells (293-hLAG-3 cells) over-expressing human LAG-3 were generated by transfecting human embryonic kidney 293 cells (Invitrogen) with pCHO1.0 vectors (Invitrogen) carrying human LAG-3 cDNA (Sino Biological) cloned into multiple cloning sites (MCSs). 293-hLAG-3 cells (0.2×10⁶ cells) were mixed with different concentrations of antibodies (ADI-26789, ADI-26869 and reference 25F7) prepared as described above (the antibodies were serially three-fold diluted from a maximum concentration of 500 nM in PBS containing 0.1% bovine serum albumin (BSA) until the 8th concentration). The cells were incubated on ice for 30 min. The cells were then washed at least twice prior to addition of a secondary antibody (a PE-labeled goat anti-human IgG antibody, Southern Biotech, final concentration […]) diluted in 1:100, and incubated on ice (protected from light) for 30 minutes. The cells were washed at least twice and analyzed by flow cytometry. The flow cytometry assay was performed on an Accuri C6 system (BD Biosciences), and a concentration-dependent curve was fitted with GraphPad according to the mean fluorescence intensity (MFI).
On the technique in general: In flow cytometry, cells or beads pass a laser one at a time.

Experiment [2] concerns the target T2, human LAG-3-His (human, UniProt P18627 23-450).
T2 construct: Bought antigen (ArcoBiosystems), 100 nM in solution in the ForteBio assay; also called human LAG-3 antigen (ArcoBiosystems); hLAG-3; not shown: His tag
T2 sequence (looked up): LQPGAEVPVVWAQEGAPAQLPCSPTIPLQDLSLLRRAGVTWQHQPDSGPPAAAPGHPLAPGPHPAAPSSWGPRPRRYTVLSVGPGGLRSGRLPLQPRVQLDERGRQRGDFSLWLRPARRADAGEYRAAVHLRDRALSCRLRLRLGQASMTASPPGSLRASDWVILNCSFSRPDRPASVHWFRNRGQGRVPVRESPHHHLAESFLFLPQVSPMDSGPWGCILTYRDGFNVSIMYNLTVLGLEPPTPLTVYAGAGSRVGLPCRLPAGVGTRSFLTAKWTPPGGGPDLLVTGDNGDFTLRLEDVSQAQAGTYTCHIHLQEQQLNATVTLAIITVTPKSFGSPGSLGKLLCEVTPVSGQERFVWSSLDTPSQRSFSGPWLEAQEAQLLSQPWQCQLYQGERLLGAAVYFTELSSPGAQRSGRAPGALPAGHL
Nature of the experiment: BLI (ForteBio), antibody on AHQ tip, human LAG-3-His 100 nM in solution. As to the method: (§1) The purified antibody obtained as described above was loaded on-line onto an AHQ sensor (ForteBio) for ForteBio affinity assay. The sensor with the loaded antibody was then exposed to 100 nM of a human LAG-3 antigen (ArcoBiosystems) for 5 minutes before transferring the sensor to the assay buffer for dissociation for 5 minutes for dissociation rate measurement. Kinetic analysis was performed using a 1:1 binding model.
In general terms: In BLI a coated tip is dipped into the sample, and binding shifts an interference pattern.

The target in experiment [3] is T3, rhLAG3 protein (huFc) (human, UniProt P18627 23-450, limits assumed).
T3 construct: Bought Fc fusion; also called antigen rhLAG3 protein (huFc) (Sino Biological); human LAG-3; not shown: human Fc
T3 sequence (looked up): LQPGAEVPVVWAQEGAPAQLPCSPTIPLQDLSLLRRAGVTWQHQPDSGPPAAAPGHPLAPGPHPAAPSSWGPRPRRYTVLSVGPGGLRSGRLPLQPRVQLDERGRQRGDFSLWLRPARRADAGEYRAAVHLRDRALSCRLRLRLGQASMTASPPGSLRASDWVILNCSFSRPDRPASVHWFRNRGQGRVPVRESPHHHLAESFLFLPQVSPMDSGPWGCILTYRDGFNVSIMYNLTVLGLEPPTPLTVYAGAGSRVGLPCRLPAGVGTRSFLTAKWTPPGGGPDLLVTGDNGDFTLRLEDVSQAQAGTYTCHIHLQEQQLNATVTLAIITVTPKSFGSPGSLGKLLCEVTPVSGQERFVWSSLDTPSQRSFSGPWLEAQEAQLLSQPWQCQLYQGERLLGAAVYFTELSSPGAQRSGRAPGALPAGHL
Nature of the experiment: flow cytometry, blocking of rhLAG3 (huFc) 20 nM binding to HLA-DR on CHO-DR cells. As to the method: Antigen rhLAG3 protein (huFc) (Sino Biological) was diluted to 40 nM, 50 μL/well. […] 50 μL of the diluted antibodies was added to each well, and incubated in PBS on ice for 30 min. The final antigen concentration was 20 nM and the maximum antibody concentration was 40 nM. The CHO-DR cells were adjusted to 3×10⁵ cells/well, 100 μL/well. The cells were centrifuged at 300 g for 5 min. The supernatant was discarded. Then the cells were resuspended in an antigen-antibody mixture. The mixture was incubated on ice for 30 min. PBS was added, 100 μL/well. After centrifugation at 300 g for 5 min, the mixture was washed with PBS once. 100 μL of goat anti-human IgG-PE (Southern Biotech) diluted in 1:100 was added to each well. After a 20-min ice bath, PBS was added, 100 μL/well. The mixture was centrifuged at 300 g for 5 min, prior to one wash with PBS. The cells were resuspended with 100 μL of PBS. The cell fluorescence signal values were measured by flow cytometry (BD Biosciences).

The target in experiment [4] is T2, human LAG-3-His. As to the kind of experiment: BLI (ForteBio), antibody on AHQ tip, human LAG-3-His 100 nM in solution, univalent. How it is done:
as §1

B1: ADI-31851 (antibody, human IgG4 S228P, kappa, F234A L235A, V domains shown)
VH: QLQLQESGPGLVKPSETLSLTCTVSGGSISSPDYYWGWIRQPPGKGLEWIGSIVYSGYTYYNPSLKSRVTISVDTSKNQFSLKLSSVTAADTAVYYCARVRTWDQSFDIWGQGTMVTVSS
VL: DIQMTQSPSSLSASVGDRVTITCQAGQDISNYLNWYQQKPGKAPKLLIYDASNLETGVPSRFSGSGSGTDFTFTISSLQPEDIATYYCQQVLELPPWTFGGGTKVEIKR
notes: IgG4 heavy chain constant region with kappa light chain; expressed in HEK293 cells
As to B1, a half-maximal effect in experiment [1] (EC50) was put at 0.501 nM. In experiment [2], the koff (in general, the rate constant with which the complex falls apart) was 0.0002 s⁻¹ and the kon (in general, the second-order rate constant of association) turned out to be 330000 M⁻¹ s⁻¹. Further, in experiment [3], the IC50 (as a rule, the midpoint of a concentration-inhibition curve) stood at 5.85 nM. Besides, the Kd (in general, the constant that tells how readily two partners part at equilibrium) in experiment [4] came out at 0.606 nM.

B2: ADI-31853 (antibody, human IgG4 S228P, kappa, F234A L235A, V domains shown)
VH: QLQLQESGPGLVKPSETLSLTCTVSGGSIYSESYYWGWIRQPPGKGLEWIGSIVYSGYTYYNPSLKSRVTISVDTSKNQFSLKLSSVTAADTAVYYCARVRTWDAAFDIWGQGTMVTVSS
VL: DIQMTQSPSSLSASVGDRVTITCQASQDISNYLNWYQQKPGKAPKLLIYDASNLETGVPSRFSGSGSGTDFTFTISSLQPEDIATYYCQQVLELPPWTFGGGTKVEIKR
notes: as for B1
Take B2: the EC50 (in general, the concentration giving half of the maximal effect) in experiment [1] turned out to be 0.433 nM. In experiment [2], the koff worked out at 0.0002 s⁻¹ and the kon worked out at 322000 M⁻¹ s⁻¹. This molecule registered an IC50 in experiment [3] of 4.53 nM. In addition, the affinity in experiment [4], expressed as Kd, was 0.622 nM.

(Values after patent US20210371529A1 (Innovent, published 2021).)
